The source of these data is PMC3212511.

In experiment [1] the target is human desmin (assembled into filaments in vitro) (human) (UniProt P17661). In words: low-speed sedimentation assay; desmin alone assembled at 22°C; 2,500 g, 10 min, 20°C; pellets only filaments associated with each other (filament-filament interactions); SDS-PAGE densitometry.
For experiment [2] the target is unchanged. The experiment is described as follows: low-speed sedimentation assay; desmin alone assembled at 37°C; 2,500 g, 10 min, 20°C; pellets only filaments associated with each other (filament-filament interactions); SDS-PAGE densitometry.
For experiment [3] the target is unchanged. In words: low-speed sedimentation assay; desmin alone assembled at 44°C; 2,500 g, 10 min, 20°C; pellets only filaments associated with each other (filament-filament interactions); SDS-PAGE densitometry.

With “human desmin (assembled into filaments in vitro) (from UniProt P17661 1-470) (natural protein)”, the % of desmin in the low-speed pellet (filament-filament interactions) in experiment [1] stood at 24%; in experiment [2], 45%; in experiment [3], 61%.
